In paper PMC7949091:

Target: HA-tagged extracellular domain of EspIgR (E. sinensis polymeric immunoglobulin receptor) (E. sinensis)

percentage of hemocyte phagocytosis of FITC-labeled S. aureus coated with rEsVg-DUF1943, in vitro, flow cytometry (controls ∼11.39%; with siEspIgR ∼5.57%): 22.1%
Substance: Flag-tagged EsVg-DUF1943 domain (domain or fragment)
percentage of hemocyte phagocytosis of FITC-labeled V. parahaemolyticus coated with rEsVg-DUF1943, in vitro, flow cytometry (with siEspIgR ∼6.10%): 21.5%
